The target of the experiment is human amyloid beta 42 (Aβ42) (human). Description: co-incubation of equimolar peptides for one month at 37 C, dialysis, 10 kDa filter concentration, SDS gel. The method, then: Various means were studied to enhance the immune potential of amyloid peptides. One such approach was derived from experiments with samples of human plasma and brain tissues having a complex of peptides that expressed epitopes for both human Aβ peptide and human RAGE. This involved the incubation of equimolar amounts of Aβ and an immunogenic fragment of RAGE for one month in sterile water at 37° C.
human amyloid beta 42 (Aβ42) (human), sequence (peptide, as listed by the source): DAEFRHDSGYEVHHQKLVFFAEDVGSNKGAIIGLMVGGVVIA
After incubation, the solution was dialyzed to remove unused products. The dialyzed solution was then concentrated in a centrifugation filter with a 10,000 molecular weight cutoff. […] The concentrated complex was dissolved in water and administered orally to rats on three occasions with two weeks between administrations. Two weeks after the last administration plasma samples were obtained for the determination of Aβ or RAGE titers.

In the case of AQNITARIGEPLVLKCKGAPKKPPQRLEWKLN (also called RAGE fragment) [immunogenic fragment of RAGE, amino acids 23 to 54 of human RAGE (RAGE23-54)], the binding result is given as “binds”.

These data come from patent US20100297160A1 (MEDICAL COLLEGE OF GEORGIA RESEARCH INSTITUTE, published 2010).
